T1: human MIP-1-alpha (human, UniProt P10147 24-92, limits assumed)
T1 construct: also called hMIP-1-alpha
T1 sequence (looked up): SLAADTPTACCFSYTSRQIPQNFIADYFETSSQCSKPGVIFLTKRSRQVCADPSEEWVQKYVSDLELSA

T2: human RANTES (human, UniProt P13501 24-91)
T2 construct: also called hRANTES
T2 sequence (looked up): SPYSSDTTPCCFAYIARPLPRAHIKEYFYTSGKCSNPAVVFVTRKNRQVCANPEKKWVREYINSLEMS

T3: human GRO/MGSA (human, UniProt P09341 35-107)
T3 construct: also called hGRO/MGSA; GRO-alpha
T3 sequence (looked up): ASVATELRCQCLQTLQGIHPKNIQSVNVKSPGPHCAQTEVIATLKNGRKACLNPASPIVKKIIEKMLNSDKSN

T4: recombinant human MCP-2 (human, UniProt P80075 24-99)
T4 construct: also called rhMCP-2
T4 sequence (looked up): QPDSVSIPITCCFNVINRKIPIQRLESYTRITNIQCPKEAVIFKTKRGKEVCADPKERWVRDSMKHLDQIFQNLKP


Legend:
[1] = target: T5, human monocyte chemo-attractant protein-1 (MCP-1) (human, UniProt P13500 24-99); experiment: ELISA, hybridoma supernatant on coated MCP-1
T5 construct: 76-residue recombinant protein from E. coli, bought (PeproTech); also called hMCP-1(MCAF); human MCP-1
T5 sequence (P13500 24-99): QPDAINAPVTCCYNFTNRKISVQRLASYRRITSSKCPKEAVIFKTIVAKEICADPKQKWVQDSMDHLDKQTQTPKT
Description: Selection of candidate antibodies for ELISA. After 14 days of culture, hybridoma supernatants were screened for MCP-1-specific monoclonal antibodies. The ELISA plates (Fisher, Cat. No. 12-565-136) were coated with 50 μl/well of MCP-1 (2 μg/mL) in Coating Buffer (0.1 M Carbonate Buffer, pH 9.6, NaHCO₃8.4 g/L), then incubated at 4° C. overnight. After incubation, the plates were washed with Washing Buffer (0.05% Tween 20 in PBS) three times. 200 μl/well Blocking Buffer (0.5% BSA, 0.1% Tween 20, 0.01% Thimerosal in 1× PBS) were added and the plates incubated at room temperature for 1 hour. After incubation, the plates were washed with Washing Buffer three times. 50 μL/well of hybridoma supernatants, and positive and negative controls were added and the plates incubated at room temperature for 2 hours.
The positive control used throughout was XMG2 MCP-1 Group 1, footpad N160-7 and the negative control was XMG2 KLH Group 1, footpad L627-6. After incubation, the plates were washed three times with Washing Buffer. […] In the secondary screen, three sets of samples (positives in first screening) were screened, one set for hIgG detection, one set for hKappa detection, and one set for hlambda detection. After incubation, the plates were washed three times with Washing Buffer. 100 μL/well of TMB (BioFX Lab. Cat. #TMSK-0100-01) were added and the plates allowed to develop for about 10 minutes (until negative control wells barely started to show color), then 50 μL/well stop solution (TMB Stop Solution (BioFX Lab. Cat. #STPR-0100-01) were added and the plates read on an ELISA plate reader at wavelength 450 nm. The OD readings from the positive wells are presented in Table 9.

[2] = target: T5, human monocyte chemo-attractant …; experiment: cell-based or functional assay
human MIP-1-alpha = target: T1, human MIP-1-alpha; experiment: ELISA, coated antigen
Description: (§1) Determining cross-reactivity of anti-MCP-1 antibodies with other chemokines. ELISA plates (Fisher Cat. No. 12-565-136) were coated with 50 μl/well of MCP-1, MCP-2, MCP-3, MCP-4, RANTES, GRO-alpha, MIP-1 alpha, eotaxin, rat MCP-1 and mouse JE (2 μg/ml) in coating buffer (0.1 M carbonate buffer, pH 9.6, NaHCO₃ 8.4 g/L, then incubated at 4° C. overnight. After incubation, the plates were washed with washing buffer (0.05% Tween 20 in PBS) three times. 200 μL/well blocking buffer (0.5% BSA, 0.1% Tween 20, 0.01% Thimerosal in 1×PBS) were added and the plates incubated at room temperature for 1 hour. After incubation, the plates were washed with washing buffer three times. 50 μL/well of hybridoma supernatants, and positive and negative controls (positive control was anti-MCP-1 antibody purchased from R&D Sciences, and negative control was an antibody to Keyhole Limpet Hemocyanin produced at Abgenix) were added and the plates incubated at room temperature for 2 hours. After incubation, the plates were washed three times with washing buffer. […] After incubation, the plates were washed three times with washing buffer and 100 μL/well of TMB (BioFX Lab. Cat. #TMSK-0 100-01) was added and the plates allowed to develop for about 10 minutes.

[3] = target: T6, recombinant mouse JE/MCP-1 (mouse, UniProt P10148 24-148); experiment: ELISA, coated antigen
T6 construct: also called rmJE/MCP-1
Description: as §1

recombinant human MCP-4 = target: T7, recombinant human MCP-4 (human, UniProt Q99616 24-98, limits assumed); experiment: ELISA, coated antigen
T7 construct: also called rhMCP-4
Description: as §1

human RANTES = target: T2, human RANTES; experiment: ELISA, coated antigen
Description: as §1

human GRO/MGSA = target: T3, human GRO/MGSA; experiment: ELISA, coated antigen
Description: as §1

[4] = target: T5, human monocyte chemo-attractant …; experiment: ELISA, coated antigen
Description: as §1

recombinant human MCP-2 = target: T4, recombinant human MCP-2; experiment: ELISA, coated antigen
Description: as §1

rat MCP-1 = rat MCP-1 (rat, UniProt P14844 24-148); experiment: ELISA, coated antigen
rat MCP-1, sequence (P14844 24-148 limits assumed): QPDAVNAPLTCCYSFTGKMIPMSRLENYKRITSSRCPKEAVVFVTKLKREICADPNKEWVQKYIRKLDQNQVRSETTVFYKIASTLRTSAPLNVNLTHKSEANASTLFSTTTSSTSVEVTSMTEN
Description: as §1

human eotaxin = target: T8, human eotaxin (human, UniProt P51671 24-97); experiment: ELISA, coated antigen
T8 construct: also called hEotaxin
Description: as §1

recombinant human MCP-3 = target: T9, recombinant human MCP-3 (human, UniProt P80098 24-99); experiment: ELISA, coated antigen
T9 construct: also called rhMCP-3
T9 sequence (P80098 24-99 limits assumed): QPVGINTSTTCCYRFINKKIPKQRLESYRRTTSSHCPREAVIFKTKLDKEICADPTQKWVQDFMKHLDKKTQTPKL
Description: as §1

| ELISA OD-MCP-1 [1] [OD450] | IC50 Ca++ Flux [2] [µg/mL] | IC50 Chemotaxis [2] [µg/mL] | ELISA OD (human MIP-1-alpha) [OD450] | ELISA OD [3] [OD450] | ELISA OD (recombinant human MCP-4) [OD450] | ELISA OD (human RANTES) [OD450] | ELISA OD (human GRO/MGSA) [OD450] | ELISA OD [4] [OD450] | ELISA OD (recombinant human MCP-2) [OD450] | ELISA OD (rat MCP-1) [OD450] | ELISA OD (human eotaxin) [OD450] | ELISA OD (recombinant human MCP-3) [OD450] | Binder |
| --- | --- | --- | --- | --- | --- | --- | --- | --- | --- | --- | --- | --- | --- |
| 4 | 1.3 | 1.4 | 0.046 | 0.044 | 0.045 | 0.045 | 0.046 | 0.549 | 0.045 | 0.046 | 0.043 | 0.05 | anti-MCP-1 mAb 3.14.1 (antibody, V domains shown) VH: EQSGPGLVKPSQTLSLTCAISGDSVSSNSAAWNWIRQSPSRGLEWLGRTYYRSKWYSDHAVSVRSRITIYPDTSKNQFSLQLNSVTPEDTAVYYCARDRISGTYVGMDVWGQGTTVTVSS VL: not shown |
| 2.06 | 0.41 | 0.58 | 0.046 | 0.042 | 0.044 | 0.046 | 0.046 | 1.13 | 0.042 | 0.062 | 0.042 | 0.046 | anti-MCP-1 mAb 1.14.1 (antibody, V domains shown) VH: QVQAEQSGPGLVKPSQTLSLTCAISGDSVSSYSAAWNWIRQSPSRGLEWLGRTYYRSKWYSDHAVSVRSRITIYPDTSKNQFSLQLNSVTPEDTAVYYCARDRISGTYVGMDVWGQGTTVTVSS VL: not shown |
| 4 | 0.11 | 0.5 | 0.042 | 0.043 | 0.045 | 0.046 | 0.046 | 1.16 | 0.046 | 0.06 | 0.044 | 0.047 | anti-MCP-1 mAb 1.13.1 (antibody, V domains shown) VH: QVQLVQSGAEVKKPGASVKVSCKVSGHTLTELSMHWVRQAPGKGLEWMGGFDPEDDETIYAQKFQDRVTMTEDTSTDTAYMELSSLRSEDTAVYYCATNDFWSGYFDCWGQGTLVTVSS VL: DIVLTQSPDSLAVCLGERATINCKSSQSVLYSPNNKNFLVWYQQRPGQPPKLLIYWASTRESGVPDRFSGSGSGTDFTLTISSLQAEDVAVYYCQQYYSSPWTFGQGTKVEIKR |
| 0.998 | 0.18 | 0.29 | 0.043 | 0.044 | 0.045 | 0.04 | 0.049 | 1.23 | 0.04 | 0.058 | 0.043 | 0.045 | anti-MCP-1 mAb 1.18.1 (antibody, human IgG2, kappa, V domains shown) VH: QVQLVQSGAEVKKPGASVKVSCKVSGYTLTELSMHWVRQAPGKGLEWMGGFDPEDGETIYAQKFQGRVTMTEDTSTDTVYMELSSLRSEDTAMYYCATREFWTGYFDHWGQGTLVTVSS VL: not shown |
| 3.86 | 0.24 | 0.51 | 0.055 | 0.044 | 0.047 | 0.046 | 0.065 | 1.15 | 0.042 | 0.053 | 0.048 | 0.05 | anti-MCP-1 mAb 3.4.1 (antibody, V domains shown) VH: QVQLVQSGAEVKKPGASVKVSCKVSGYTLTELSMHWVRQAPGKGLEWMGGFDPEDGETMYAQKFQGRVTMTEDTSTDTAYMELSSLRSEDTAVYYCATDDFWSGYFDYWGQGTLVTVSS VL: DIVMTQSPDSLAVSLDERATINCKSSQSVLYSPNQKNYLVWYQQKPGQPPKLLLYWASIRESGVPDRFSGSGSGTDFTLTISSLQAEDVAVYYCQQSYFTPWTFGQGTKVEIKR |
| 3.47 | 0.18 | 0.24 | 0.04 | 0.041 | 0.055 | 0.04 | 0.044 | 1.16 | 0.056 | 0.044 | 0.044 | 0.048 | anti-MCP-1 mAb 1.2.1 (antibody, V domains shown) VH: QVQLVQSGAEVKKPGASVKVSCKVSGYTFTELSMHWVRQAPGKGLEWMGGFDPEDGETSYAQKFRGRVTMTEDTSTDTAHMELSSLRSEDTAVYYCATNDFWSGYFDYWGQGTLVTVSS VL: DIQMTQSPSSVSASVGDRVTITCRASQGIDIYLAWYQQKPGKAPKLLINAASSLQNGVPSRFGGSGSGTDFTLTISGLQPEDFATYYCQLTYFFPWTFGQGTKVEIKR |
| 3.63 | 0.3 | 0.25 | 0.043 | 0.054 | 0.042 | 0.04 | 0.042 | 0.71 | 0.845 | 0.045 | 0.306 | 0.167 | anti-MCP-1 mAb 3.10.1 (antibody, V domains shown) VH: QVQLVQSGAEVKKPGASVKVSCKVSGYTLTELSMHWVRQAPGKGLEWMGGFDPEDGETIYAQKFQGRVMMTEDTSTDTAFMDLSSLRSEDTAVYYCATDDMLTPHYLYFGMDVWGQGTTVTVSS VL: DIQMTQSPSSLSASVGDRVTITCRASQGIRNDLGWYQQKPGKAPKRLIYATSSLQSGVPSRFSGSGSGTEFTLTISSLQPEDFATYYCLQHNTYPFTFGPGTKVDIKR |

From patent US20050058639A1 (AstraZeneca / MedImmune, published 2005)
